Laboratory results: US20190062398A1 (published 2019)

T1: Human papillomavirus type 16 E5 protein peptide on HLA-A*02:01 (human)
T1 peptide: YIIFVYIPL

T2: Human papillomavirus type 16 E7 protein peptide on HLA-A*02:01 (human)
T2 peptide: TLGIVCPI

T3: Human papillomavirus type 16 E6 protein peptide on HLA-A*02:01 (human)
T3 peptide: TIHDIILECV


Experiments:
Test in all cases: cytokine release
[1] = target: T1, Human papillomavirus type 16 E5 protein …
[2] = target: T2, Human papillomavirus type 16 E7 protein …
[3] = target: T3, Human papillomavirus type 16 E6 protein …

Row | Binder | binding result [3] | other results
1 | T2 (TCR, V domains shown) Valpha: QKEVEQNSGPLSVPEGAIASLNCTYSDRGSQSFFWYRQYSGKSPELIMSIYSNGDKEDGRFTAQLNKASQYVSLLIRDSQPSDSATYLCAVNVDFNKFYFGSGTKLNVKP Vbeta: DTEVTQTPKHLVMGMTNKKSLKCEQHMGHRAMYWYKQKAKKPPELMFVYSYEKLSINESVPSRFSPECPNSSLLNLHLHALQPEDSALYLCASSQDWNNEQFFGPGTRLTVL | – | binding result [1]: recognises
2 | T7 (TCR, V domains shown) Valpha: QQPVQSPQAVILREGEDAVINCSSSKALYSVHWYRQKHGEAPVFLMILLKGGEQKGHEKISASFNEKKQQSSLYLTASQLSYSGTYFCGTGTDSWGKLQFGAGTQVVVTP Vbeta: DAGVIQSPRHEVTEMGQEVTLRCKPISGHDYLFWYRQTMMRGLELLIYFNNNVPIDDSGMPEDRFSAKMPNASFSTLKIQPSEPRDSAVYFCASSPGLAGGEQFFGPGTRLTVL | – | binding result [2]: recognises
3 | T5a (TCR, V domains shown) Valpha: SQQGEEDPQALSIQEGENATMNCSYKTSINNLQWYRQNSGRGLVHLILIRSNEREKHSGRLRVTLDTSKKSSSLLITASRAADTASYFCATVSTDSWGKLQFGAGTQVVVTP Vbeta: DAGITQSPRHKVTETGTPVTLRCHQTENHRYMYWYRQDPGHGLRLIHYSYGVKDTDKGEVSDGYSVSRSKTEDFLLTLESATSSQTSVYFCAISDSNGINIQYFGAGTRLSVL | recognises | –
4 | T4 (TCR, V domains shown) Valpha: KQEVTQIPAALSVPEGENLVLNCSFTDSAIYNLQWFRQDPGKGLTSLLLIQSSQREQTSGRLNASLDKSSGRSTLYIAASQPGDSATYLCAVRETSGSRLTFGEGTQLTVNP Vbeta: DVKVTQSSRYLVKRTGEKVFLECVQDMDHENMFWYRQDPGLGLRLIYFSYDVKMKEKGDIPEGYSVSREKKERFSLILESASTNQTSMYLCASSFWGRSTDTQYFGPGTRLTVL | recognises | –
5 | T3 (TCR, V domains shown) Valpha: EDQVTQSPEALRLQEGESSSLNCSYTVSGLRGLFWYRQDPGKGPEFLFTLYSAGEEKEKERLKATLTKKESFLHITAPKPEDSATYLCAVQANRGSTLGRLYFGRGTQLTVWP Vbeta: DVKVTQSSRYLVKRTGEKVFLECVQDMDHENMFWYRQDPGLGLRLIYFSYDVKMKEKGDIPEGYSVSREKKERFSLILESASTNQTSMYLCASSLWGRLAKNIQYFGAGTRLSVL | recognises | –
6 | T5b (TCR, V domains shown) Valpha: SQQGEEDPQALSIQEGENATMNCSYKTSINNLQWYRQNSGRGLVHLILIRSNEREKHSGRLRVTLDTSKKSSSLLITASRAADTASYFCATVSTDSWGKLQFGAGTQVVVTP Vbeta: DVKVTQSSRYLVKRTGEKVFLECVQDMDHENMFWYRQDPGLGLRLIYFSYDVKMKEKGDIPEGYSVSREKKERFSLILESASTNQTSMYLCASSLWGRAGKDTQYFGPGTRLTVL | recognises | –
